Results taken from patent US20220289796A1.
“And” between values parts separate entries of the source, which are not always exact repeats. Equal values may be shown once. Read-outs that look alike come from different tables or passages of the source.

Experiments:
[1] = target: DENV2 sE PM2, displayed on EXPI293F cells (Dengue virus 2 strain 16681); assay: flow cytometry, EXPI293F surface display, 40 C
[2] = target: DENV2 sE Cm1, displayed on EXPI293F cells (Dengue virus 2 strain 16681); assay: flow cytometry, EXPI293F surface display, 40 C
[3] = target: DENV2 sE IntFc8, displayed on EXPI293F cells (Dengue virus 2 strain 16681); assay: flow cytometry, EXPI293F surface display, 40 C
[4] = target: DENV2 sE SHP1, displayed on EXPI293F cells (Dengue virus 2 strain 16681); assay: flow cytometry, EXPI293F surface display, 40 C
[5] = target: DENV2 sE Mnmer1, displayed on EXPI293F cells (Dengue virus 2 strain 16681); assay: flow cytometry, EXPI293F surface display, 40 C
[6] = target: DENV2 sE Mnmer2, displayed on EXPI293F cells (Dengue virus 2 strain 16681); assay: flow cytometry, EXPI293F surface display, 40 C
[7] = target: DENV2 sE SHP2, displayed on EXPI293F cells (Dengue virus 2 strain 16681); assay: flow cytometry, EXPI293F surface display, 40 C
[8] = target: DENV2 sE HCat3, displayed on EXPI293F cells (Dengue virus 2 strain 16681); assay: flow cytometry, EXPI293F surface display, 40 C
[9] = target: DENV2 sE Cm2, displayed on EXPI293F cells (Dengue virus 2 strain 16681); assay: flow cytometry, EXPI293F surface display, 40 C
[10] = target: DENV2 sE WT, displayed on EXPI293F cells (Dengue virus 2 strain 16681); assay: flow cytometry, EXPI293F surface display, 40 C
[11] = target: DENV2 sE IntFc2, displayed on EXPI293F cells (Dengue virus 2 strain 16681); assay: flow cytometry, EXPI293F surface display, 40 C
[12] = target: DENV2 sE IntFc6, displayed on EXPI293F cells (Dengue virus 2 strain 16681); assay: flow cytometry, EXPI293F surface display, 40 C
[13] = target: DENV2 sE UndPk6, displayed on EXPI293F cells (Dengue virus 2 strain 16681); assay: flow cytometry, EXPI293F surface display, 40 C
[14] = target: DENV2 sE PM4, displayed on EXPI293F cells (Dengue virus 2 strain 16681); assay: flow cytometry, EXPI293F surface display, 40 C
[15] = target: DENV2 sE PM2, displayed on EXPI293F cells (Dengue virus 2 strain 16681); assay: flow cytometry, EXPI293F surface display, RT (~23 C)
[16] = target: DENV2 sE Cm1, displayed on EXPI293F cells (Dengue virus 2 strain 16681); assay: as above
[17] = target: DENV2 sE IntFc8, displayed on EXPI293F cells (Dengue virus 2 strain 16681); assay: as above
[18] = target: DENV2 sE SHP1, displayed on EXPI293F cells (Dengue virus 2 strain 16681); assay: as above
[19] = target: DENV2 sE Mnmer1, displayed on EXPI293F cells (Dengue virus 2 strain 16681); assay: as above
[20] = target: DENV2 sE Mnmer2, displayed on EXPI293F cells (Dengue virus 2 strain 16681); assay: as above
[21] = target: DENV2 sE SHP2, displayed on EXPI293F cells (Dengue virus 2 strain 16681); assay: as above
[22] = target: DENV2 sE HCat3, displayed on EXPI293F cells (Dengue virus 2 strain 16681); assay: as above
[23] = target: DENV2 sE Cm2, displayed on EXPI293F cells (Dengue virus 2 strain 16681); assay: as above
[24] = target: DENV2 sE WT, displayed on EXPI293F cells (Dengue virus 2 strain 16681); assay: as above
[25] = target: DENV2 sE IntFc2, displayed on EXPI293F cells (Dengue virus 2 strain 16681); assay: as above
[26] = target: DENV2 sE IntFc6, displayed on EXPI293F cells (Dengue virus 2 strain 16681); assay: as above
[27] = target: DENV2 sE UndPk6, displayed on EXPI293F cells (Dengue virus 2 strain 16681); assay: as above
[28] = target: DENV2 sE PM4, displayed on EXPI293F cells (Dengue virus 2 strain 16681); assay: as above
[29] = target: DENV2 sE PM2, displayed on EXPI293F cells (Dengue virus 2 strain 16681); assay: flow cytometry, displayed sE, 40 C
[30] = target: DENV2 sE IntFc8, displayed on EXPI293F cells (Dengue virus 2 strain 16681); assay: flow cytometry, displayed sE, 40 C
[31] = target: DENV2 sE SHP1, displayed on EXPI293F cells (Dengue virus 2 strain 16681); assay: flow cytometry, displayed sE, 40 C
[32] = target: DENV2 sE SHP2, displayed on EXPI293F cells (Dengue virus 2 strain 16681); assay: flow cytometry, displayed sE, 40 C
[33] = target: DENV2 sE HCat3, displayed on EXPI293F cells (Dengue virus 2 strain 16681); assay: flow cytometry, displayed sE, 40 C
[34] = target: DENV2 sE IntFc2, displayed on EXPI293F cells (Dengue virus 2 strain 16681); assay: flow cytometry, displayed sE, 40 C
[35] = target: DENV2 sE UndPk6, displayed on EXPI293F cells (Dengue virus 2 strain 16681); assay: flow cytometry, displayed sE, 40 C
[36] = target: DENV2 sE PM4, displayed on EXPI293F cells (Dengue virus 2 strain 16681); assay: flow cytometry, displayed sE, 40 C
[37] = target: DENV2 sE WT (Dengue virus 2 strain 16681) (UniProt P29990); assay: nanoDSF Van't Hoff, homodimer, 37 C; set-up: TΔS°bind: unit not given here
[38] = nanoDSF melting, homodimer dissociation, 4.0 µM

Row | Substance | Fluorescence Ratio (Fr, Var/WT) [1] | Fluorescence Ratio (Fr, Var/WT) [3] | Fluorescence Ratio (Fr, Var/WT) [4] | Fluorescence Ratio (Fr, Var/WT) [5] | Fluorescence Ratio (Fr, Var/WT) [6] | Fluorescence Ratio (Fr, Var/WT) [7] | Fluorescence Ratio (Fr, Var/WT) [8] | Fluorescence Ratio (Fr, Var/WT) [9] | Fluorescence Ratio (Fr, Var/WT) [10] | Fluorescence Ratio (Fr, Var/WT) [11] | Fluorescence Ratio (Fr, Var/WT) [12] | Fluorescence Ratio (Fr, Var/WT) [13] | Fluorescence Ratio (Fr, Var/WT) [15] | Fluorescence Ratio (Fr, Var/WT) [16] | Fluorescence Ratio (Fr, Var/WT) [17] | Fluorescence Ratio (Fr, Var/WT) [18] | Fluorescence Ratio (Fr, Var/WT) [19] | Fluorescence Ratio (Fr, Var/WT) [20] | Fluorescence Ratio (Fr, Var/WT) [21] | Fluorescence Ratio (Fr, Var/WT) [22] | other results
1 | 1C19 (antibody) | 2.5 | 3.5 | 1.8 | 0 | 0.8 | 1.9 | 2.5 | 1.6 | 1 | 2.5 | 0 | 2.9 | 1.7 | 0.9 | 2 | 1.3 | 0.2 | 0.8 | 1.2 | 1.5 | Fluorescence Ratio (Fr, Var/WT) [2]: 3.2; Fluorescence Ratio (Fr, Var/WT) [14]: 3.1; Fluorescence Ratio (Fr, Var/WT) [23]: 0.6; Fluorescence Ratio (Fr, Var/WT) [24]: 1; Fluorescence Ratio (Fr, Var/WT) [25]: 1.4; Fluorescence Ratio (Fr, Var/WT) [26]: 0.8; Fluorescence Ratio (Fr, Var/WT) [27]: 2.4; Fluorescence Ratio (Fr, Var/WT) [28]: 2.1
2 | 2D22 (antibody) | 2.8 | 4.4 | 4.4 | 0 | 0.8 | 3.1 | 2.8 | 4.4 | 1 | 2.5 | 0 | 4.9 | 2.5 | 0.8 | 2.5 | 3 | 0.5 | 2.8 | 2.4 | 1.6 | Fr (geometric mean fluorescence intensity ratio, variant/WT) [29]: > 2 fold; Fr (geometric mean fluorescence intensity ratio, variant/WT) [30]: > 2 fold; Fr (geometric mean fluorescence intensity ratio, variant/WT) [31]: > 2 fold; Fr (geometric mean fluorescence intensity ratio, variant/WT) [32]: > 2 fold; Fr (geometric mean fluorescence intensity ratio, variant/WT) [33]: > 2 fold; Fr (geometric mean fluorescence intensity ratio, variant/WT) [34]: > 2 fold; Fr (geometric mean fluorescence intensity ratio, variant/WT) [35]: > 2 fold; Fr (geometric mean fluorescence intensity ratio, variant/WT) [36]: > 2 fold; Fluorescence Ratio (Fr, Var/WT) [2]: 1.6; Fluorescence Ratio (Fr, Var/WT) [23]: 1.9; Fluorescence Ratio (Fr, Var/WT) [24]: 1; Fluorescence Ratio (Fr, Var/WT) [25]: 1.3; Fluorescence Ratio (Fr, Var/WT) [26]: 1; Fluorescence Ratio (Fr, Var/WT) [27]: 2.7; Fluorescence Ratio (Fr, Var/WT) [28]: 3
3 | 3H5 (antibody) | 0.5 | 0.4 | 0.5 | 0 | 0.8 | 0.5 | 0.6 | 0.6 | 1 | 0.6 | 0 | 0.4 | 0.7 | 0.5 | 0.5 | 0.7 | 0.3 | 0.8 | 0.6 | 0.7 | Fluorescence Ratio (Fr, Var/WT) [2]: 0.6; Fluorescence Ratio (Fr, Var/WT) [14]: 0.4; Fluorescence Ratio (Fr, Var/WT) [23]: 0.4; Fluorescence Ratio (Fr, Var/WT) [24]: 1; Fluorescence Ratio (Fr, Var/WT) [25]: 0.8; Fluorescence Ratio (Fr, Var/WT) [26]: 0.6; Fluorescence Ratio (Fr, Var/WT) [27]: 0.8; Fluorescence Ratio (Fr, Var/WT) [28]: 0.8
4 | DENV2 sE WT |  |  |  |  |  |  |  |  |  |  |  |  |  |  |  |  |  |  |  |  | Tm^1 (Dimer Dissociation): 35.9 ° C. and 34.2 ° C. and 32.1 ° C.
5 | DENV2 sE WT (from UniProt P29990 281-677) |  |  |  |  |  |  |  |  |  |  |  |  |  |  |  |  |  |  |  |  | Kd [37]: 13 µM; TΔS°bind [37]: -67.1; ΔG°bind [37]: -6.9 kcal/mol; ΔH°bind [37]: -74.1 kcal/mol
6 | DENV3 sE WT |  |  |  |  |  |  |  |  |  |  |  |  |  |  |  |  |  |  |  |  | Tm^1 (Dimer Dissociation) [38]: < 15 ° C.; ΔTm^1 (Var-WT) [38]: 0 ° C.
7 | EDE1 C8 (antibody) |  |  |  |  |  |  |  |  |  |  |  |  | 2.4 | 0.9 | 3.3 | 2.9 | 0.7 | 2.7 | 2.3 | 1.9 | Fluorescence Ratio (Fr, Var/WT) [23]: 1.7; Fluorescence Ratio (Fr, Var/WT) [24]: 1; Fluorescence Ratio (Fr, Var/WT) [25]: 1.3; Fluorescence Ratio (Fr, Var/WT) [26]: 1.3; Fluorescence Ratio (Fr, Var/WT) [27]: 2.3; Fluorescence Ratio (Fr, Var/WT) [28]: 3.2
8 | EDE1 C10 (antibody) | 3.7 | 5.9 | 5.6 | 0 | 0.1 | 3.8 | 3 | 3.8 | 1 | 3.4 | 0 | 4.1 |  |  |  |  |  |  |  |  | Fr (geometric mean fluorescence intensity ratio, variant/WT) [29]: > 2 fold; Fr (geometric mean fluorescence intensity ratio, variant/WT) [30]: > 2 fold; Fr (geometric mean fluorescence intensity ratio, variant/WT) [31]: > 2 fold; Fr (geometric mean fluorescence intensity ratio, variant/WT) [32]: > 2 fold; Fr (geometric mean fluorescence intensity ratio, variant/WT) [33]: > 2 fold; Fr (geometric mean fluorescence intensity ratio, variant/WT) [34]: > 2 fold; Fr (geometric mean fluorescence intensity ratio, variant/WT) [35]: > 2 fold; Fr (geometric mean fluorescence intensity ratio, variant/WT) [36]: > 2 fold
